Measured values as given in PMC314469, “Protein Interaction Networks by Proteome Peptide Scanning” (PLoS Biology, 2004).

Assays:
[1] = target: T1, amphyphisin SH3 (AMPH_HUMAN), P49418; assay: SPOT array
T1 chain: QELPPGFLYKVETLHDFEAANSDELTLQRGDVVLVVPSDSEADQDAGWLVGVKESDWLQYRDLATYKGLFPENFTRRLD

[2] = target: endophilin SH3 (SH3G2_HUMAN), Q99962; assay: SPOT array

THSIIKRPDNQHVI [Q02817 4993-5006] was tested, and the normalised SPOT signal, Boehringer light units (BLU); mean over the file's lines of this peptide [1] was 38.6 and the normalised SPOT signal, Boehringer light units (BLU); mean over the file's lines of this peptide [2] was 56.3.

In the case of AAVPPPRPPIPEER [Q16099 865-879], the normalised SPOT signal, Boehringer light units (BLU); mean over the file's lines of this peptide [1] is reported as 419 and the normalised SPOT signal, Boehringer light units (BLU); mean over the file's lines of this peptide [2] is reported as 4290.

SYTRIKRPQDQLRF [P55055 405-418] showed a normalised SPOT signal, Boehringer light units (BLU); mean over the file's lines of this peptide [1] of 38.5 and a normalised SPOT signal, Boehringer light units (BLU); mean over the file's lines of this peptide [2] of 128.

For SVNHIKRPHSVPSS [O75179 569-582], the normalised SPOT signal, Boehringer light units (BLU); mean over the file's lines of this peptide [1] was 16.7 and the normalised SPOT signal, Boehringer light units (BLU); mean over the file's lines of this peptide [2] was 133.

In the case of TEDTPRRPPEPKPI [Q9UKN7 2430-2443], the normalised SPOT signal, Boehringer light units (BLU); mean over the file's lines of this peptide [1] is reported as 16.8 and the normalised SPOT signal, Boehringer light units (BLU); mean over the file's lines of this peptide [2] is reported as 16.8.

TEEELRRPEMKNFF [Q9Y373 238-251] gave a normalised SPOT signal, Boehringer light units (BLU); mean over the file's lines of this peptide [1] of 34.2 and a normalised SPOT signal, Boehringer light units (BLU); mean over the file's lines of this peptide [2] of 28.7.

TFGIPLRPNRGRGG [Q9UFR3 88-101] was tested, and the normalised SPOT signal, Boehringer light units (BLU); mean over the file's lines of this peptide [1] was 8170 and the normalised SPOT signal, Boehringer light units (BLU); mean over the file's lines of this peptide [2] was 583.

TIPKPPKPPDKPLM [O43539 57-71] was tested, and the normalised SPOT signal, Boehringer light units (BLU); mean over the file's lines of this peptide [1] was 59.5 and the normalised SPOT signal, Boehringer light units (BLU); mean over the file's lines of this peptide [2] was 1750.

For SWPLLERPWKAFLN [Q9H6E9 501-514], the normalised SPOT signal, Boehringer light units (BLU); mean over the file's lines of this peptide [1] was 12.2 and the normalised SPOT signal, Boehringer light units (BLU); mean over the file's lines of this peptide [2] was 179.

SVIKPTRPDRGWFV [Q9HBU5 808-821] gave a normalised SPOT signal, Boehringer light units (BLU); mean over the file's lines of this peptide [1] of 4960 and a normalised SPOT signal, Boehringer light units (BLU); mean over the file's lines of this peptide [2] of 3200.

In the case of TEVDIKRPSRGQTS [Q96T37 401-414], the normalised SPOT signal, Boehringer light units (BLU); mean over the file's lines of this peptide [1] is reported as 656 and the normalised SPOT signal, Boehringer light units (BLU); mean over the file's lines of this peptide [2] is reported as 77.7.

In the case of TELLPKRPQHLPGH [P54098 556-569], the normalised SPOT signal, Boehringer light units (BLU); mean over the file's lines of this peptide [1] is reported as 34.4 and the normalised SPOT signal, Boehringer light units (BLU); mean over the file's lines of this peptide [2] is reported as 21.9.

Binder TELLPRRPPSSSSS [Q9BZL6 226-240] has a normalised SPOT signal, Boehringer light units (BLU); mean over the file's lines of this peptide [1] of 118 and a normalised SPOT signal, Boehringer light units (BLU); mean over the file's lines of this peptide [2] of 339.

TAPLPIRPPSGTKK [Q9UBS0 458-472] gave a normalised SPOT signal, Boehringer light units (BLU); mean over the file's lines of this peptide [1] of 468 and a normalised SPOT signal, Boehringer light units (BLU); mean over the file's lines of this peptide [2] of 1100.

Work on SEEHPRRPDHGRRG [Q9NUN8 9-22] yielded a normalised SPOT signal, Boehringer light units (BLU); mean over the file's lines of this peptide [1] of 17.2 and a normalised SPOT signal, Boehringer light units (BLU); mean over the file's lines of this peptide [2] of 55.3.

SVVGIRRPFQIPPG [Q9NPJ5 421-434] gave a normalised SPOT signal, Boehringer light units (BLU); mean over the file's lines of this peptide [1] of 33.8 and a normalised SPOT signal, Boehringer light units (BLU); mean over the file's lines of this peptide [2] of 127.

With TILLPKRPPKTTED [Q9BT43 129-143] the normalised SPOT signal, Boehringer light units (BLU); mean over the file's lines of this peptide [1] was 282 and the normalised SPOT signal, Boehringer light units (BLU); mean over the file's lines of this peptide [2] was 916.

TIPPFERPFKDHQV [O94847 104-117] gave a normalised SPOT signal, Boehringer light units (BLU); mean over the file's lines of this peptide [1] of 0 and a normalised SPOT signal, Boehringer light units (BLU); mean over the file's lines of this peptide [2] of 127.

With TKALLKRPLREIQM [Q9UBI4 175-188] the normalised SPOT signal, Boehringer light units (BLU); mean over the file's lines of this peptide [1] was 866 and the normalised SPOT signal, Boehringer light units (BLU); mean over the file's lines of this peptide [2] was 170.

In the case of SVSRPERPPESAAL [Q9Y256 12-26], the normalised SPOT signal, Boehringer light units (BLU); mean over the file's lines of this peptide [1] is reported as 85.5 and the normalised SPOT signal, Boehringer light units (BLU); mean over the file's lines of this peptide [2] is reported as 102.

With SWQILARPWRAFFK [Q9H6E1 737-750] the normalised SPOT signal, Boehringer light units (BLU); mean over the file's lines of this peptide [1] was 1030 and the normalised SPOT signal, Boehringer light units (BLU); mean over the file's lines of this peptide [2] was 73.5.

Work on THLLIKRPPFFHYR [Q9HAM8 259-272] yielded a normalised SPOT signal, Boehringer light units (BLU); mean over the file's lines of this peptide [1] of 33.8 and a normalised SPOT signal, Boehringer light units (BLU); mean over the file's lines of this peptide [2] of 2020.

With TEGIPPKPPPRLVW [Q9UBY0 781-795] the normalised SPOT signal, Boehringer light units (BLU); mean over the file's lines of this peptide [1] was 2770 and the normalised SPOT signal, Boehringer light units (BLU); mean over the file's lines of this peptide [2] was 1260.

TAKKIKRPKFTVPQ [Q9UDN0 30-43] gave a normalised SPOT signal, Boehringer light units (BLU); mean over the file's lines of this peptide [1] of 42.6 and a normalised SPOT signal, Boehringer light units (BLU); mean over the file's lines of this peptide [2] of 15.1.

TGGGPGRPPDWTPH [Q9BZS0 2280-2294] showed a normalised SPOT signal, Boehringer light units (BLU); mean over the file's lines of this peptide [1] of 43.3 and a normalised SPOT signal, Boehringer light units (BLU); mean over the file's lines of this peptide [2] of 668.

For SYRRLDRPTRIRFS [Q9H2X0 201-214], the normalised SPOT signal, Boehringer light units (BLU); mean over the file's lines of this peptide [1] was 780 and the normalised SPOT signal, Boehringer light units (BLU); mean over the file's lines of this peptide [2] was 2240.

TDNKFRRPWTRVSA [Q96M73 46-59] was tested, and the normalised SPOT signal, Boehringer light units (BLU); mean over the file's lines of this peptide [1] was 40.3 and the normalised SPOT signal, Boehringer light units (BLU); mean over the file's lines of this peptide [2] was 20.5.

TEGRLRRPQQQQER [Q96PE2 193-206] was tested, and the normalised SPOT signal, Boehringer light units (BLU); mean over the file's lines of this peptide [1] was 30 and the normalised SPOT signal, Boehringer light units (BLU); mean over the file's lines of this peptide [2] was 0.

SDTSPRRPLRPTPN [Q16456 13-26] was tested, and the normalised SPOT signal, Boehringer light units (BLU); mean over the file's lines of this peptide [1] was 3520 and the normalised SPOT signal, Boehringer light units (BLU); mean over the file's lines of this peptide [2] was 1300.

Binder SVSFIGRPWRVVDG [Q12789 1979-1992] has a normalised SPOT signal, Boehringer light units (BLU); mean over the file's lines of this peptide [1] of 112 and a normalised SPOT signal, Boehringer light units (BLU); mean over the file's lines of this peptide [2] of 78.1.

Work on SVSGPKRPQDRVAV [P48200 444-457] yielded a normalised SPOT signal, Boehringer light units (BLU); mean over the file's lines of this peptide [1] of 38.9 and a normalised SPOT signal, Boehringer light units (BLU); mean over the file's lines of this peptide [2] of 67.2.

Binder TASPPARPPAQVGL [Q9NT59 32-46] has a normalised SPOT signal, Boehringer light units (BLU); mean over the file's lines of this peptide [1] of 34.4 and a normalised SPOT signal, Boehringer light units (BLU); mean over the file's lines of this peptide [2] of 365.

With SVIPPDRPPGASAG [O43147 533-547] the normalised SPOT signal, Boehringer light units (BLU); mean over the file's lines of this peptide [1] was 53.4 and the normalised SPOT signal, Boehringer light units (BLU); mean over the file's lines of this peptide [2] was 72.8.

With SVIKPPRPDRGWFV [Q9BY07 808-821] the normalised SPOT signal, Boehringer light units (BLU); mean over the file's lines of this peptide [1] was 1520 and the normalised SPOT signal, Boehringer light units (BLU); mean over the file's lines of this peptide [2] was 4940.

TENAPSRPLRRRRK [Q9ULR8 121-134] was tested, and the normalised SPOT signal, Boehringer light units (BLU); mean over the file's lines of this peptide [1] was 18800 and the normalised SPOT signal, Boehringer light units (BLU); mean over the file's lines of this peptide [2] was 1650.

In the case of SEGSLTRPKKAIPA [Q13329 90-103], the normalised SPOT signal, Boehringer light units (BLU); mean over the file's lines of this peptide [1] is reported as 76.6 and the normalised SPOT signal, Boehringer light units (BLU); mean over the file's lines of this peptide [2] is reported as 128.

Work on TAVPPKRPYGTQRT [Q9H6A9 359-372] yielded a normalised SPOT signal, Boehringer light units (BLU); mean over the file's lines of this peptide [1] of 37.8 and a normalised SPOT signal, Boehringer light units (BLU); mean over the file's lines of this peptide [2] of 398.

SEGTLERPQRSRGR [Q9NQX6 85-98] showed a normalised SPOT signal, Boehringer light units (BLU); mean over the file's lines of this peptide [1] of 930 and a normalised SPOT signal, Boehringer light units (BLU); mean over the file's lines of this peptide [2] of 125.

Binder SWERPRRPNGDIVG [P16144 1660-1673] has a normalised SPOT signal, Boehringer light units (BLU); mean over the file's lines of this peptide [1] of 3700 and a normalised SPOT signal, Boehringer light units (BLU); mean over the file's lines of this peptide [2] of 2770.

Binder TAGPPKRPGRPPKN [P55201 901-914] has a normalised SPOT signal, Boehringer light units (BLU); mean over the file's lines of this peptide [1] of 5130 and a normalised SPOT signal, Boehringer light units (BLU); mean over the file's lines of this peptide [2] of 93.8.

SVEPPKRPTSRLIM [Q9UMX9 24-37] gave a normalised SPOT signal, Boehringer light units (BLU); mean over the file's lines of this peptide [1] of 36 and a normalised SPOT signal, Boehringer light units (BLU); mean over the file's lines of this peptide [2] of 480.

SVTDIRRPRLYLLQ [Q9NYY3 591-604] showed a normalised SPOT signal, Boehringer light units (BLU); mean over the file's lines of this peptide [1] of 35.9 and a normalised SPOT signal, Boehringer light units (BLU); mean over the file's lines of this peptide [2] of 96.5.
